The record followed here is PMC11189624 (2024).

For the test, the target named is F-actin (rabbit skeletal actin) (Oryctolagus cuniculus (Rabbit), UniProt P68135). The experiment in a line: F-actin co-sedimentation (SDS-PAGE/CBB); actin in filamentous form; binding antagonized by Myo5a-MTD (mutually exclusive with exon-G).

B1: GST-Mlph-ABD (the GST-tagged ABD of Mlph, residues 401–590) (protein)
chain: SSEDETKPDGTFLGGSPKVCTDTGHMETQERNPRSPGNPARPTKSTDEELSEMEDRVAMTASEVQQAESEISDIESRIAALRAAGLTVKPSGKPRRKSGIPIFLPRVTEKLDRIPKTPPADPDDQAKMPKATTAVPSLLRRKYSPSSQGVDSGSFDRKSVYRGSLTQRNPNGRRGTARHIFAKPVMAQQP
With B1, the binding result is on record as “binds”.
